Numbering of substitutions follows the chain as printed.
B1: YBL-007 (antibody, V domains shown)
VH: QMQLVQSGAEVKKPGSSVKVSCKASGGTFSSYAISWVRQAPGQGLEWMGRIIPILGIANYAQKFQGRVTITADKSTSTAYMELSSLRSEDTAVYYCAKPRDGYNLVAFDIWGQGTMVTVSS
VL: QLVLTQPPSVSGAPGQRVTISCTGSSSNIGAGYDVHWYQQLPGAAPKLLIYGDINRPSGVPDRFSGSKSGISASLAITGLQAEDEADYYCQSYDSSLSGGVFGGGTKLTVLR
notes: also called parental anti-PD-L1 antibody; anti-hPD-L1 antibody
B2: UCHT1 (an anti-CD3 antibody from BioLegend, USA) (antibody, V domains shown)
VH: EVQLQQSGPELVKPGPSMKISCKASGYSFTGYTMNWVKQSHGKNLEWMGLINPYKGVSTYNQKFKDKATLTVDKSSSTAYMELLSLTSEDSAVYYCARSGYYGDSDWYFDVWGQGTTLTVFS
VL: DIQMTQTTSSLSASLGDRVTISCRASQDIRNYLNWYQQKPDGTVKLLIYYTSRLHSGVPSKFSGSGSGTDYSLTISNLEQEDIATYFCQQGNTLPWTFAGGTKLEIKR
notes: Bought antibody; also called parental anti-CD3 antibody
B3: ACE-05 (bispecific antibody)
heavy 1: not shown
heavy 2: not shown
light: QLVLTQPPSVSGAPGQRVTISCTGSSSNIGAGYDVHWYQQLPGAAPKLLIYGDINRPSGVPDRFSGSKSGISASLAITGLQAEDEADYYCQSYDSSLSGGVFGGGTKLTVLRTVAAPSVFIFPPSDEQLKSGTASVVCLLNNFYPREAKVQWKVDNALQSGNSQESVTEQDSKDSTYSLSSTLTLSKADYEKHKVYACEVTHQGLSSPVTKSFNRGEC
notes: Contains a GGGGS linker between the hinge and the Fv; also called ALiCE molecule ACE-05
B4: ACE-05-VL2 (other)
heavy: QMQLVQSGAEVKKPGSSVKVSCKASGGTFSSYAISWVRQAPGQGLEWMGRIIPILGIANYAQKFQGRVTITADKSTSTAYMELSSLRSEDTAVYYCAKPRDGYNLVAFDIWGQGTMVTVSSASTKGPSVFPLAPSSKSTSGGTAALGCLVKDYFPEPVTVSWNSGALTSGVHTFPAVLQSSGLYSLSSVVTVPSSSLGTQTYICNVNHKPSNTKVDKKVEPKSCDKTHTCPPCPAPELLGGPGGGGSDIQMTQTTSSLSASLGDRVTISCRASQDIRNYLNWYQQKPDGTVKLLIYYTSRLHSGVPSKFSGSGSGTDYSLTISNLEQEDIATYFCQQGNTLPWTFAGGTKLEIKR
light: B3 light
B5: ACE-09 (bispecific antibody)
heavy 1: not shown
heavy 2: not shown
light: B3 light with T113S

Legend:
[1] = biological target: T1, PD-L1 (PD-1/PD-L1 Blockade Bioassay kit, Promega) (UniProt Q9NZQ7 19-290, limits assumed); assay: cell-based or functional assay
T1 sequence (Q9NZQ7 19-290 limits assumed): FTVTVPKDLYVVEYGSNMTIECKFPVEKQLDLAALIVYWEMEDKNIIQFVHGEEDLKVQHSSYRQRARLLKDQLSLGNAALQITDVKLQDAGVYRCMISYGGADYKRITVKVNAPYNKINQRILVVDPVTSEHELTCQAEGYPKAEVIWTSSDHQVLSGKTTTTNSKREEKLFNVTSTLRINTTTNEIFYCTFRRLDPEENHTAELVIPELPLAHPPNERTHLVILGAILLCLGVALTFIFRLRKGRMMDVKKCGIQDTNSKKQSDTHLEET

[2] = biological target: T1, PD-L1 (PD-1/PD-L1 Blockade Bioassay …); assay: cell-based or functional assay; remark: listed apart in the source
[3] = biological target: T2, human PD-L1 (human, UniProt Q9NZQ7 19-238, limits assumed); assay: label-free kinetics on OCTET QKe (called SPR in the text), PD-L1 on AHC biosensor
T2 construct: also called hPD-L1
T2 sequence (Q9NZQ7 19-238 limits assumed): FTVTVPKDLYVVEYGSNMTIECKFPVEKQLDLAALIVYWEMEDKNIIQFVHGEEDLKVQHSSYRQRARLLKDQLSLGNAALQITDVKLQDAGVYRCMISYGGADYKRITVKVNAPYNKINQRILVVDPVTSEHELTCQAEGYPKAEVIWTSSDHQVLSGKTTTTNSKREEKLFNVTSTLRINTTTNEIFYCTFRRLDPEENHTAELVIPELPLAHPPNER
Method: (§1) Measurement of label-free kinetics (protein-protein interaction) using OCTET® QKe system (ForteBio, USA) was performed by using an anti-human IgG capture (AHC) biosensor (ForteBio, USA) for human PD-L1 and amine reactive (ARG2) biosensor for CD3εδ chains. […] Sensorgrams were collected over time.

[4] = biological target: T3, CD3 on Jurkat luciferase reporter cells (Homo sapiens (Human), UniProt P07766 23-207; P09693 23-182; P04234 22-171); assay: flow cytometry on Jurkat_NFAT_Luc2P cells, FITC-A; histogram shifted to about 10^3
T3 construct: also called CD3 positive Jurkat cell line with NFAT luciferase reporter

[5] = biological target: T4, hCD3εγ chains; assay: ELISA on hCD3εγ chains, curve fit
T4 construct: copies: 1 + 1
T4 epsilon: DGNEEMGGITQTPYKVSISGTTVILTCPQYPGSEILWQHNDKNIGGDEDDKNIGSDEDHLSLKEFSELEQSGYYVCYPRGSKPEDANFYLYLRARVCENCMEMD
T4 gamma: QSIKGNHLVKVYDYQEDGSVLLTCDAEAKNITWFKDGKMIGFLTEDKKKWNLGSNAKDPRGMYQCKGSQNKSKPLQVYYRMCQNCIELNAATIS
Method: (§2) Next day, plate was washed once with 200 μl of PBST, and then a surface blocking was performed at room temperature with 5% skim milk for 1-2 hours. […] Each well was then washed three times with 200 μl of PB ST to remove unbound samples. Horseradish peroxidase (HRP)-conjugated anti-human IgG (Fab specific) antibodies (Sigma, USA) were added to wells at a ratio of 1:1000 for a reaction at room temperature. After three times of washing with 200 ul of PBST, a color reaction of HRP was induced using TMB solution (GEhealthcare, USA) in a volume of 10 μl/well. The reaction was terminated by using a stop solution (2.5 M H2504, 100 μl/well). A spectrophotometer was used to measure the absorbance at a wavelength of A450 to calculate the binding affinity.

[6] = biological target: CD3 (Sino Biological); assay: ELISA on CD3, curve fit
Method: as §2

[7] = biological target: T4, hCD3εγ chains; assay: ELISA on hCD3εγ chains, curve fit of a flat curve
Method: as §2

[8] = biological target: T5, hCD3εε chains; assay: ELISA on hCD3εε chains
T5 epsilon: T4 epsilon
Method: as §2

[9] = biological target: T2, human PD-L1; assay: label-free kinetics on OCTET QKe, PD-L1 on AHC biosensor; PD-L1 fixed on AHC biosensor (OCTET QKe)
Method: as §1

Binder | EC50 (read off the curve); luciferase RLU in the PD-1/PD-L1 Blockade Bioassay, blocked partner PD-1 [1] | EC50; luciferase RLU in the PD-1/PD-L1 Blockade Bioassay, blocked partner PD-1 [2] | Bmax [6] | Kd [6] | other results
B1 | ~0.05 µg/mL | 0.0112 nM | – | – | Kd [3]: 0.0132 nM
B2 | – | – | 3.67 O.D. 450 nm | 2.69 nM | Fold [4]: 35 fold over hIgG; Kd [5]: 33.3 nM
B3 | ~0.02 µg/mL | 0.00429 nM | 3.97 O.D. 450 nm | 17.6 nM | Kd (fit value of a flat curve) [7]: 0.035 nM; binding result [8]: no binding (tested: 100 nM); Kd [9]: < 0.0109 nM
B4 | ~0.08 µg/mL | – | – | – | –
B5 | – | – | 4.04 O.D. 450 nm | 21.1 nM | –
